These results are taken from the nanobody polyreactivity screen of Harvey et al. (2022).

A short description of this data set: yeast display, Sf9 membrane polyspecificity reagent, FACS + sequencing; frameworks hold sequencing errors. The method in brief: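 Nanobodies came from a synthetic yeast display library in Saccharomyces cerevisiae BJ5465, induced with galactose for 36–48 hours and stained for 1 hour at 4 °C with 10% biotinylated, detergent-solubilized Sf9 membrane reagent. Cells were enriched on streptavidin microbeads and then FACS-sorted, with low and high (top ~1%) gates set on anti-HA fluorescence for expression and streptavidin fluorescence for reagent binding. Each polyreactivity label reflects the gate a clone came from. Genes were amplified by colony PCR, sequenced by MiSeq 2 × 250 and filtered by CDR length.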
Turning to “QVQLVESGGGLVQAGGSLRLSCAASGSIFLVNAMGWYRQAPGKERELVAAISWGGGSTYYADSVKGRFTISRDNAKNTVYVQMNSLKPEDTAVYYCAAESYYYIRYFDYSRWMGYWGQGTQVTVSS”, the “polyreactivity (PSR sort gate)” value is “low polyreactivity”.

Regarding “QVQLVESGGGLVQAGGSLRLSCAASGSIFRRYAMGWYRKAPGKEREMVAGISRTGSRTYYADSVKGRFTISRDNAKNTVYLQMNSLKPEDTAVYYCAALGPGRSGFFRYDYWGQGTQVTVSS”, the “polyreactivity (PSR sort gate)” value is given as “high polyreactivity”.

For “QVQLVESGGVLVQAGGSPRLSCAASGRTYAYYPMGWYRQAPGKERELVARITRGGSTYYADSVKGRFTISRDNAKNSVYLQMYSLIPDDTAVYYCNRYQWQHYTSVYLRTGSDYWGQGTQVTVSS”, the “polyreactivity (PSR sort gate)” value is given as “high polyreactivity”.

Consider “QVQLVESGGGLVQAGGSLRLSCAASGSTFKYYAMGWYRQAPAKERELVAAISARTGSTYYADSVKGRFTISRDNAKNTVYLQMNRLKPEDTAVYYCNKLTWRGEVDYWGQGTQVTVSS”, for which the “polyreactivity (PSR sort gate)” value was “high polyreactivity”.

In the case of “QVQLVESGGGLVQAGGSLRLSCAASGRTFTGNAMGWYRQAPGKERELVAAISQRGGRTNYADSVKGRFTISRDNAKNTVYLQMHSLKPEDTAVYYCAADQSYPKRLPSFEYWGQGTQVTVSS”, the “polyreactivity (PSR sort gate)” value is “low polyreactivity”.

On to “QVQLVESGGGLVQAGGSLRLSCAASGGIFGRYAMGWYRQAPGKERELVAAISSRGGSTYYADSVKGRFTISRDNAKNTVYLQMNSLKPEDTAVYYCNALWVSYYTFRMDYWGQGTQVTVSS”, for which the “polyreactivity (PSR sort gate)” value is “high polyreactivity”.

Take “QVQLVESGGGLVQAGGSLRLSCAASGSIFGPYAMGWYRQAPGKERELVAVISRSGGSTYYADSVKGRFTISRDNAKNTVYLQMNSLKPEDTAVYYCAAYRGPRADYYWGQGTHVTVSS”: the “polyreactivity (PSR sort gate)” value was “high polyreactivity”.

For “QVQLVESCGGLVQAGGSLRLSCAASGSTLATYAMGWYRQAPWKERELDAVITRGGRTYYADSVKGRFTISRDNAKNTVYLQMNSLKPEDTAVFYCNATRAGENPDGGDEYWGQGTQVTVSS”, the “polyreactivity (PSR sort gate)” value is “high polyreactivity”.

Regarding “QVQLVESGGGLVQAGGSLRLSCAASGSIFPENAMGWYRQAPGKERELVAAITSSDSSTYYADSVKGRFTISRDNAKNTVYLQMNSLKPEDTAVYYCAAYRVGFRFREYYWGQGTQVTVSS”, the “polyreactivity (PSR sort gate)” value is “low polyreactivity”.

Take “QVQLVESGGGLVQAGGSLRLSCAASGSIFVYNAMGWYRQAPGKEREFVAAISWSVGRTYYADSVKGRFTFSRDNEKNTVYLQMNSLKPEDNAVYYCNAEFVAWYYYEEHDGDYWGQGTQVTVSS”: the “polyreactivity (PSR sort gate)” value is given as “high polyreactivity”.

For “QVQLEESGGRLVQAGGSLRLSCAASGSTFITNAMGWYRQAPGKERELVAAITYSTGGTYYADSVKGRFTISRDNAKNTVYLQMNSLKPEDTAVYYCAALLYFFLYDYWGHGTQVTVSS”, the “polyreactivity (PSR sort gate)” value is on record as “low polyreactivity”.

As to “QVQLVESGGGLVQAGGSLRLSCAASGYTFTIYAMGWYRKAPGKERELVAAITGRGGRTNYADSVKGRFTISRDNAKNTVYLQMNSLKPEDTAVYYCNAVTKVVYHGPYGYDYWGQGTQVTVSS”, the “polyreactivity (PSR sort gate)” value is on record as “high polyreactivity”.

On to “QVQLVESGGGLVQAGGSLRLSCAASGFIFGWYTMGWYRQAPGKERELVASISRSGGSTYYAESVKARFTISRDNEKNSVYLQMNSQKPEDNPVYYCAKRSLVDAHGYWGQGTQVTVSS”, for which the “polyreactivity (PSR sort gate)” value is “high polyreactivity”.

For “QVQLVESGAGLVHAGGSLRLSCASSGRTFAKYAMGWYRQAPGKERELVAAISGRSGSTYYADSVKGRFTISRDNPKNTVYLQMNSLKPEDTAVYYCAASGGSRYDWVQGTQVTVSS”, the “polyreactivity (PSR sort gate)” value is listed as “high polyreactivity”.

On to “QVQLVESGGGLVQAGGSLRLSCAASGRTFGYYAMGWYRQSPGKERELVAAITSGGRTYYADSVKGRFTISRDNAKNTVYLQMNSLKPEDTAVYYCNAPARWGSRVAWYEYWGQGTQVSVSS”, for which the “polyreactivity (PSR sort gate)” value is reported as “high polyreactivity”.

Consider “QEQLQESGGGLVQAGDSPRLSCAESGYITARTGMGSYRQAPGKEREFVAGIASGTRTHYADSVKGRFTISRDNAKNAVYLQMTSLKPEDTAVYYCAATFGFFYYQYDYWGQGTQVTVSS”, for which the “polyreactivity (PSR sort gate)” value is “low polyreactivity”.

Consider “QVQLVESGGGLVQAGGSLRLSCAASGSIGYYAMGWYRQAPGKERELVAAIDWSGGDTYYADSVKGRFTISRDNAKNTVYLQMNSLKPEDTAVYYCAKRLYLKTCAASSADDYWGQGTQVTVSS”, for which the “polyreactivity (PSR sort gate)” value is listed as “low polyreactivity”.

For “QVQLVESGGGLVQAGGSLRLSCAASGRTFYYYTMGWYRQAPGKDRELVAAIRGSGGSTYYADSVKGRFTISRDNAKNTVYLQMNSLKPEVTAVYYCNATRRRSARYGYISAYDYWGQGTQVTVSS”, the “polyreactivity (PSR sort gate)” value is “high polyreactivity”.

Take “QVQIVESRGGLVQAGGSLSLSCAASGRIFDYYAMGWYRQPPGKERELVAAISSSVGNTYYADSVKGRFTISRDNSKNTVYLQMNSLKPEVTAVYYCADYSYVRSSYEVEYDYWGQGTQVTVSS”: the “polyreactivity (PSR sort gate)” value is listed as “low polyreactivity”.

With “QVQLVESGGGLVQAGGSLRLSCAASGLTIRYNAMGWYRQAPGKERELVARISRNGGRTYYADSVKGRFTISRDNAKNTVYLQMKSLKPEDTAVNYCNVVYFVTTSPGYDYWGQGTQVTVSS”, the “polyreactivity (PSR sort gate)” value was “high polyreactivity”.

In the case of “QDQLVESGGGLVQAGGSLRLSCAASGIIFDDNTLGWYRQAPGKERELVAAISSSGGSTYYADSVKGRFSISRDNAKNTVYLQMNSLKPEDTAVYYCAAAVYYTYPYIVYRNYPEFDYWGQGTQVTVSS”, the “polyreactivity (PSR sort gate)” value is listed as “low polyreactivity”.

Turning to “QGQLEESVGGLVQAGGSLRLSCAASGRIFRYYAMGLYRQAPGKERELVAAIRSGGSTNYADSVKGRFTISRDNAKNTVYLQMKSLKPEDTAVYYCNARYRYFKGGYWGQGTQVTVSS”, the “polyreactivity (PSR sort gate)” value is given as “high polyreactivity”.

Turning to “QVQLVESGGGLVQAGGSLRLICAASGSIFASYVMGWYRQAPGKERDLVAAITSRGTSTYYADSVKGRFTISRDNAKNTVYFQINSLKTEDTAVYYCAARLYGSAPQHEYWGKGTQVTVSS”, the “polyreactivity (PSR sort gate)” value is “low polyreactivity”.

Turning to “QVQLVESGGGLVQAGGSLRLSCAASGFIFWRNTMGWYRQAPGKERELVAVITRGGSTYYADSVKGRFTISRDNAKNTVYLQMNSLKPEDTAVYYCAARNDYYKTFSGYDYWGQGTQVTVSS”, the “polyreactivity (PSR sort gate)” value was “low polyreactivity”.

“QVQLVESGGGLDQAGGSLGLSCAPSGRTFFPYAMGWSRQAPGKEREFVAAITKTDDSTYYADSVKGRFTISRDKAKNTVYLPMNSLKPEDTAVYYCIAGDTQIRFYYWGQGTQVTVSS”: the “polyreactivity (PSR sort gate)” value is reported as “low polyreactivity”.

As to “QVQLVESGGGLVQAGGSLRLSCAASGRIFRWYAMGWYRQAPGKERELVASITWNGGSTYYADSVKGRFTISRDNAKNTVYLQMNSLKPEDTAVYYCAVAFYRGPEMGYWGQGTQVTVSS”, the “polyreactivity (PSR sort gate)” value is “high polyreactivity”.

Take “QVQLVESGGGLVQAGGSLRLSCAASGRIFADYAMGWYRQAPGKERELVATITSGDRTYYADSVKGRFTTSRDNAKNTVYLQMNSLKPEDTAVYYCAAYKPWYVGLYPWYDYWGQGTQVTVSS”: the “polyreactivity (PSR sort gate)” value is recorded as “low polyreactivity”.

With “QVQLVESGGGLVQAGGSLRLSCAASGRIITFNPMGWYRQAPGKERELVAAISSRGDGTYYADSVKGRYTISRDNAKNSFYVQMNSLKPEDTAVYYCARYPDDYYDWGYDYWGHGTQVTVSS”, the “polyreactivity (PSR sort gate)” value was “low polyreactivity”.

Consider “QVQLEDSGGGLVQAGGSLRLSCAASGSTFDNYAMGWYRQAPGKERELVAVITQSGGITFYADSVKGRFTISRDNAKNTVYLQMNSVKPEDTAVYYCNVELDRSWYYYWGQGTQVTVSS”, for which the “polyreactivity (PSR sort gate)” value is listed as “low polyreactivity”.

For “QVQLVESGGGLVQAGGSLRISCAASGTFGSNAMGWYRQAPGKERELVAAINSGGTTKYADSVKGRFTISRDNAKNTVYLQMNSLKPEDTAVYYCNAREGVFRYPVAHDYWGQGTQVTVSS”, the “polyreactivity (PSR sort gate)” value is listed as “low polyreactivity”.

As for “QVQLVESGGGLVQAGGSLRLSCAASGFTFYSNAMGWYRQAPGKERELVAAISFSGTRTYYADSVKGRFTISRDNAKNTVYLQMNSLKPEDTAVYYCNAVAYNYPRTYDYWGQGTQVTVSS”, the “polyreactivity (PSR sort gate)” value is “high polyreactivity”.

On to “QVQLVESGGGLVQAGGSLRLSCATGSIFGYNAMGWYRQAPGKERELVAAITSGGSTYYADSVKGRFTISRDNAKNTVYLQMNSLKPEDTAVYYCNRDDYNTAYRDASGYWGQGTQVTVSS”, for which the “polyreactivity (PSR sort gate)” value is “low polyreactivity”.

For “QVQLVESGGGLVQAGGRLSLSCAASGSIFRNNTMGWYRQAPGKERELVAAISGRGTPTSYADSVKGRFTISRDNAKNTVYLQMNSLKPEDTAVYYCAAVYYWRPGWYVRFDYWGQGTQVTVSS”, the “polyreactivity (PSR sort gate)” value was “low polyreactivity”.

With “QVQLVESGGGLVQAGGSLRLSCADSGFTFDYNAMGSYRQAPGKERELVAAISTGGSTKYADSVKGRFTISRDNAKNTVYLQMNSLKPEDTAVYYCNKQTTDRGFYDWKWSGFDYWGQGTQVTVSS”, the “polyreactivity (PSR sort gate)” value is reported as “low polyreactivity”.

In the case of “QVQLVESGGGLVQAGGSLRLSCAASGGIFPQYSMGWYTQAPGKERELVSAISRRGGRTYYADSVKGRFTISRDTAKNTVYLQMNSLKPEDTAVYYCAKRALTYTRYRVIYDYWGQGTQVTVSS”, the “polyreactivity (PSR sort gate)” value is on record as “high polyreactivity”.

As to “QVQLEDSGGGLVQAGGSLPLSCAASGSIFVQYDMGWYIQAPGKERELVAAINDSGDITYYADSVKARFTISRDNAKNTIYLQMNSLKPEDTAVYYCAASAAYYGFYKSVTYDYWGQGTQVTVSS”, the “polyreactivity (PSR sort gate)” value is on record as “low polyreactivity”.

Turning to “QVQLVESGGGLVQAGGSLRLSCAASGSILGGNAKGWYRQAPGKERELVAAITFSGGGTYYADSVKGRFTISRDNAKNTVYLQMNSLKPEDTAVYYCAADKDGYTYEFDYWGQGTQVTVSS”, the “polyreactivity (PSR sort gate)” value is “low polyreactivity”.

For “QVQLVESGGALVQAGGSLRLSCAASGRTFYNYAMGWYRQAPGKEREFVASITTSGGSTYYADSVKGRFTISRDNAKNTVYLQMNSLIPEDTAVYYCARRAYRSWTRNSYEYYYWGQGTQVTVSS”, the “polyreactivity (PSR sort gate)” value was “high polyreactivity”.

In the case of “QVQLVESGGGLVQAGGSLRLSCAASGLIFGVNAMGLYRQAPGTESELVAAITSRGGSTYYADSVKGRFTISRDNAKNTVYLQMNSLKPEDTAVDYCAAKYAYYEPYSWRPQRTYNYWGQGTQVTVSS”, the “polyreactivity (PSR sort gate)” value is recorded as “high polyreactivity”.

In the case of “QVQLVESGGGLVQAGGSLRLSCAASGFTFYHNAMGWYRQAPGKERELVAAISSSGDSTYYADSVKGRFTIARDNAKNTVYLQMNSLKPEDTAVYYCNDYFYYLSQYYYYWFNYDYWGQGTQVTVSS”, the “polyreactivity (PSR sort gate)” value is listed as “low polyreactivity”.
